Where a chain is given by its changes, count along the chain named. Names and notes keep the numbering of the source.

Consider five proteins from article PMC4051119, “Bacterial actin MreB forms antiparallel double filaments” (eLife, 2014).

Data set [1] deals with the molecule itself. Briefly: negative-stain electron microscopy; pre-assembled filaments (CcMreB 0.25 mg/ml, V118E 0.13 mg/ml) in 12.5 mM Tris-HCl 7.5, 2 mM ATP, 4 mM MgCl2 on a monolayer of E. coli total lipid extract, 2% uranyl acetate; 2D averaging.
Data set [2] deals with the molecule itself. Briefly: cryo-electron microscopy and tomography; MreB 1 mg/ml with 1 mg/ml liposomes (E. coli total lipid extract) or lipid tubes (plus 30% C24:1 β-D galactosyl ceramide), 2 mM ATP, 4 mM MgCl2; CcMreB in 12.5 mM Tris-HCl 7.5, TmMreB in 100 mM Tris-HCl 7.5, 200 mM NaCl; 2D and subtomogram averaging.
Data set [3] deals with the molecule itself. The data set can be described thus: crystal structure; C. crescentus MreB constructs crystallised at 10-30 mg/ml, empty or with ADP or AMPPNP, no inhibitor; filament or monomer state read from the crystal packing.
Data set [4] concerns the molecule itself. The description is as above. The source holds these as a separate data set.

B1: Full-length, untagged MreB from C. crescentus (CcMreB) (natural protein, Caulobacter crescentus, UniProt A0A0H3C7V4 1-347, looked up)
chain: MFSSLFGVISNDIAIDLGTANTLIYQKGKGIVLNEPSVVALRNVGGRKVVHAVGIEAKQMLGRTPGHMEAIRPMRDGVIADFEVAEEMIKYFIRKVHNRKGFVNPKVIVCVPSGATAVERRAINDSCLNAGARRVGLIDEPMAAAIGAGLPIHEPTGSMVVDIGGGTTEVAVLSLSGIVYSRSVRVGGDKMDEAIISYMRRHHNLLIGETTAERIKKEIGTARAPADGEGLSIDVKGRDLMQGVPREVRISEKQAADALAEPVGQIVEAVKVALEATPPELASDIADKGIMLTGGGALLRGLDAEIRDHTGLPVTVADDPLSCVALGCGKVLEHPKWMKGVLESTLA
notes: MreB, Caulobacter crescentus, GenBank ACL95077.1, M1-A347; Forms filaments (double protofilaments); number of copies not defined; also called Caulobacter MreB; pFE403 (plasmid); source: E. coli C41, purified (HisTrap, elution by SUMO protease, GST column, S300HR size exclusion)
With B1, the binding result in data set [1] was “binds”.

B2: CcMreB-V118E (inter-protofilament mutant V118E in full-length CcMreB) (natural protein, Caulobacter crescentus, UniProt A0A0H3C7V4 1-347, looked up)
chain: B1 chain with V118E
notes: MreB, Caulobacter crescentus, GenBank ACL95077.1, full length with V118E; also called pFE542 (plasmid); source: E. coli C41, purified (HisTrap, elution by SUMO protease, GST column, S300HR size exclusion); not shown: His-SUMO, N-terminal, cleaved
Consider B2, for which, in data set [1], the binding result is “binds”.

B3: Full-length untagged Thermotoga maritima MreB1 (TmMreB) (natural protein, UniProt Q9WZ57 1-336, looked up)
chain: MLRKDIGIDLGTANTLVFLRGKGIVVNEPSVIAIDSTTGEILKVGLEAKNMIGKTPATIKAIRPMRDGVIADYTVALVMLRYFINKAKGGMNLFKPRVVIGVPIGITDVERRAILDAGLEAGASKVFLIEEPMAAAIGSNLNVEEPSGNMVVDIGGGTTEVAVISLGSIVTWESIRIAGDEMDEAIVQYVRETYRVAIGERTAERVKIEIGNVFPSKENDELETTVSGIDLSTGLPRKLTLKGGEVREALRSVVVAIVESVRTTLEKTPPELVSDIIERGIFLTGGGSLLRGLDTLLQKETGISVIRSEEPLTAVAKGAGMVLDKVNILKKLQGAG
notes: MreB1, Thermotoga maritima, GenBank AAD35673.1, M1-G336; called non-tagged / untagged; also called pFE349 (plasmid); source: expressed as an Intein-CBD-tagged fusion from plasmid pFE349 and purified as described previously (Salje et al., 2011)
For B3, the binding result in data set [2] is recorded as “binds”.

B4: ΔCcMreBh (M-I9-CcMreB-A347-GSHHHHHH) (domain or fragment, Caulobacter crescentus)
chain: MISNDIAIDLGTANTLIYQKGKGIVLNEPSVVALRNVGGRKVVHAVGIEAKQMLGRTPGHMEAIRPMRDGVIADFEVAEEMIKYFIRKVHNRKGFVNPKVIVCVPSGATAVERRAINDSCLNAGARRVGLIDEPMAAAIGAGLPIHEPTGSMVVDIGGGTTEVAVLSLSGIVYSRSVRVGGDKMDEAIISYMRRHHNLLIGETTAERIKKEIGTARAPADGEGLSIDVKGRDLMQGVPREVRISEKQAADALAEPVGQIVEAVKVALEATPPELASDIADKGIMLTGGGALLRGLDAEIRDHTGLPVTVADDPLSCVALGCGKVLEHPKWMKGVLESTLA
notes: start methionine placed before I9; MreB, Caulobacter crescentus, GenBank ACL95077.1, I9-A347 (N-terminal amphipathic helix deleted); Electrospray mass 36,916 Da (36,911 Da expected); also called CCM2; source: E. coli C41(DE3), purified (HisTrap, Sephacryl S300HR)
B4: the binding result in data set [3] is on record as “binds”.

B5: ΔCcMreBdh (M-I9-CcMreB(F102S, V103G)-A347-GSHHHHHH) (domain or fragment, Caulobacter crescentus)
chain: B4 chain with F95S, V96G
notes: start methionine placed before I9; MreB, Caulobacter crescentus, GenBank ACL95077.1, I9-A347, hydrophobic loop mutated (F102S, V103G); Electrospray mass 36,813 Da (36,809 Da expected); also called pFE397 (plasmid); source: E. coli C41(DE3), purified (HisTrap, Sephacryl S300HR)
Turning to B5, the binding result in data set [4] is on record as “binds”.
